The values that follow come from patent US20090082410A1.

This test deals with angiotensin II type 1A receptor. Description: cell-based or functional assay.

As for arrestin-GFP, the arrestinGFP translocation response (Fgrains, INCell Analyzer), U2OS cells, 1:4 dilution of GRK2-C20 baculovirus, no ligand was found to be 305 Fgrains; the arrestinGFP translocation response (Fgrains, INCell Analyzer), U2OS cells, 1:256 dilution of GRK2-C20 baculovirus, no ligand stood at 77 Fgrains; the arrestinGFP translocation response (Fgrains, INCell Analyzer), U2OS cells, no added GRK2-C20, no ligand was 18 Fgrains.
